# According to the supplement of paper PMC11502859:
# Test system: HEK293T
# Assay: median enrichment of reporter reads in eGFP-reduced (low/intermediate) vs eGFP-high sorted cells (eGFP-extension fusion abundance) (ratio); higher = stronger loss of eGFP-fusion protein abundance (more destabilising extension)
# 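Further: lentiviral eGFP-IRES-mCherry reporter pool sorted by FACS 96 h post-transduction, gated on mCherry-high cells, Illumina read counts normalized per million, median across four biological replicates.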
row,Substance,median enrichment
1,LGSWRHWRGQEG [Degron KLHDC3],8.96
2,LGTQASPSLTAEVRNKRWFRVPA [PSMC3],8.36
3,LGYRFWKHLSLGPKEVLLPFWASITQVVPVLTAEETSLPLFVLSPSFFNSV [MS4A8],15.7
4,LHGFQASGSLTISLLRVSPGNCLTKSQAQGLLSIYLISERLF [LIMCH1],33.9
5,LHGPCMLINASSEM [TMEM205],5.79
6,LHSCTPISRAASLPSRGLQQCAWLAAAPPRAPWPRRCQPT [THSD4],7.14
7,LHSL [ZNF443],0.555
8,LHTELFIDTPHDCISRTHLLIILDPRETITSPSRQWRQIKISAEKEGHVEPQKHFYSG [SNTG1],9
9,LHTQSPGVGHTAVISQS [ALLC],0.756
10,LHVKTFILVSTVFQ [SCGB1D2],6.88
11,LIA [ACAT2],1.03
12,LIFFYQEG [PTEN],5.69
13,LIFLI [MAP2],6.91
14,LIGCMEK [BTN3A1],11.1
15,LIHGAEG [SLC16A1],1.29
16,LIHSQGKLGNSEEKSLPSFWMNCMSSGLSTTM [RNF32],10
17,LIIMLKSALTFLR [MCF2L2],15.2
18,LILKLHPQ [BZW1],4.65
19,LILYPSAMATRRTNNCPPLEVRLIEALDPNKIRIRICNGPGAVPHACHPSTLGG [RBPMS],3.14
20,LINARSHPMIILNYSHYF [LRRIQ3],6.8
21,LIPQPGLPVHLLTLLKSSIVVIL [CD46],10.7
22,LIPVDPQGLAKARDTQREMLVIPLENLASNFLYV [KRT38],39.9
23,LIQHREVAACDLTHRFLCFLSHPGNLAFWFLPATLRLSSSAFQ [FHL2],7.42
24,LISHSYLLKYI [ELAVL4],7.49
25,LISLSKSIKRESSLQK [SYNGR4],8.85
26,LKDRFFKLT [RBBP6],3.7
27,LKEIWEIL [ZNF418],16.1
28,LKELIFNFSLQTGQH [TAF7],6.43

row,Substance,median enrichment
1,LKG [SSBP1],0.599
2,LKH [HOXA2],0.608
3,LKILVLLNYLI [TIPARP],10.8
4,LKINC [FGG],0.827
5,LKKKKG [TNFAIP6],3.07
6,LKKKKKKALAFSCLFC [PCDH17],25.4
7,LKKKKQQVMELHILVTQWTIIGSHWKSGKNPWRLSFSDILPNALLSRIFVSFCLIFWGVFVVVGLFFVFFF [PPP1R12A],5.8
8,LKKNPRKNKS [NME5],1.1
9,LKLQLNRGSRKLLSLRGGV [MIP],14.1
10,LKNCLEELY [EBF1],2.5
11,LKNKSPLQNTPPSHSAPQLPTTARLSSFASVASPALHALAGTVAAAFSCSVMPSSCLKQKKIMHCVF [STXBP1],6.42
12,LKPERIVK [OR2A25],0.737
13,LKPGC [KRTAP1-4],0.613
14,LKPPSAGDPDKMAP [KRTAP1-1],0.285
15,LKQPV [RIC3],1.01
16,LKSKLVVLQLCVTFSPSAVSVQHLFHKCFVFSNTVFTTLLACICMFYTKAYTVLCEAIRSRKGIVNNIKHFYTKIICFVIRF [SLC44A5],2.32
17,LKSP [SPATA5L1],0.47
18,LKTPHPSLLECVWPFSSFSWQHQLGCFLCVWPQVSK [DUSP6],6.83
19,LKVLAGFT [DACH2],4.2
20,LKVSVNLQC [ZFR],6.3
21,LKWAEPKFGVLHRAPFLHPWGGAQLGATLTMPRPHPVQHSQSSHLHPRTVGAGRHFPLEHVLRSITLGPTARLSLPPGSCMRS [SCARA5],5.99
22,LLAG [QKI],4.55
23,LLAL [MS4A5],7.23
24,LLASIS [TENT2],5.22
25,LLC [OR10A3],3.73
26,LLCKEYGIAKISLVANISGKVHIFILNSHSFEL [MYNN],4.26
27,LLECEISVGQTTRVCVCVLMESSLVVSSSFFLVTVLLNLIK [PET117],9.64
